Results as given in patent US20240374746A1 (TALLAC THERAPEUTICS, published 2024).

Legend:
[1] = target: T1, Cyno SIRP-α V4 D1 domain-6His-Avi (cynomolgus, limits assumed); assay: SPR (Biacore 8K), conjugate captured on Protein A chip, His-tagged SIRP-α as analyte, single cycle kinetics; pH 7.4, 37 C
T1 construct: also called Analyte C
T1 chain: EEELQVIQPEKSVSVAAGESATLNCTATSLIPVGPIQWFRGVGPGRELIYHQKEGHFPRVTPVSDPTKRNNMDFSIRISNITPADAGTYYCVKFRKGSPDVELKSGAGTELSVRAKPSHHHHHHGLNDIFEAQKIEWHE
Description: (§1) Binding of the anti-SIRP-α antibody conjugate was measured using a Biacore 8K high throughput, high-sensitivity SPR system (Cytiva, Global Life Sciences Solutions USA LLC, Marlborough, MA) equipped with S-type sensor chips. The interaction of the conjugate with SIRP-α was analyzed by flowing His-tagged SIRP-α over Protein A captured anti-SIRP-α antibody conjugate on a Biacore Series S Protein A Sensor Chip. The anti-SIRP-α antibody portion of the conjugate comprised a heavy chain comprising the sequence of SEQ ID NO:66 and a light chain comprising the sequence of SEQ ID NO:73 conjugated to CpG oligo 7-7 (SEQ ID NO: 35).
(§2) All SIRP-α analytes were injected in single cycle kinetics mode at nominal starting concentrations of 100 nM with 3-fold serial dilutions with the exception of rat SIRP-α. Higher starting concentration of 300 nM was used for assessing binding to rat SIRP-α at pH 7.4. Association times were monitored for 120 s, and dissociation times were monitored 600 s at 30 μL/min flow rate. The surfaces were regenerated with 75 mM phosphoric acid at pH1.65 for two pulses of 15 s at 30 μL/min flow rate. Experiments were done at either 25° C. or 37° C. and at pH 6.0 or 7.4. Assay buffers were 1×PBS 0.01% Tween-20 at pH 6.0 with and 1×HBS-EP+ (10 mM HEPES, pH7.4, 150 mM NaCl, 3 mM EDTA, 0.05% (v/v) Surfactant P20) at pH 7.4. All data points were collected in duplicate or greater.
(§3) The data were processed and analyzed with Biacore 8K Evaluation Software Version 4.0.8.20368 (Cytiva, Global Life Sciences Solutions USA LLC, Marlborough, MA). Reference responses from flow cell 1 were subtracted from the active responses from flow cell 2 to obtain the subtracted data (2-1). The responses from the nearest buffer blank injection were then subtracted from the reference subtracted data (2-1) to yield double-referenced data. These double-reference data were fit to a simple 1:1 Langmuir binding model with mass transport to determine the apparent association (ka) and dissociation rate constants (kd). The apparent equilibrium dissociation constant or affinity constant was then calculated based on their ratio as (KD=kd/ka).

[2] = target: T2, Mouse SIRP-α normal D1 domain-6His (mouse); assay: as above
T2 construct: also called Analyte D
T2 chain: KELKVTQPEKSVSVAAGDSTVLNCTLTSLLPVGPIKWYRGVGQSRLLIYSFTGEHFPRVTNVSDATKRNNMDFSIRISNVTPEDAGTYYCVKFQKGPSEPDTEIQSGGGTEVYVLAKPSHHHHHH
Description: as §1, §2, §3

[3] = target: T3, Rat SIRP-α K32-N373-ECD-6His (rat, UniProt P97710 32-373); assay: as above
T3 construct: K32-N373 in the name counts on the natural rat protein; also called Analyte E; Rat SIRPα-ECD
T3 sequence: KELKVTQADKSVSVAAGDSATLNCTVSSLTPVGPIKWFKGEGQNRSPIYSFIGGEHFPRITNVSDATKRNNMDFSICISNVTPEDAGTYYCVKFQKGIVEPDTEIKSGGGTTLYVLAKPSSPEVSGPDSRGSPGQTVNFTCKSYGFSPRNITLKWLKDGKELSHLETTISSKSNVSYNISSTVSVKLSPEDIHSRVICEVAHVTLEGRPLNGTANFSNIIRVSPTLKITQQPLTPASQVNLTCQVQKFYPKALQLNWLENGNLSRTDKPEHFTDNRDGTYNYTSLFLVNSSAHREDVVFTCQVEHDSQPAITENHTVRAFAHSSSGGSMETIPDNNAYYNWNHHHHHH
Description: as §1, §2, §3

[4] = target: T4, human SIRP-α V1 D1 domain-6His (human, UniProt P78324 31-149); assay: as above
T4 construct: also called Analyte A
Description: as §1, §2, §3

[5] = target: T5, human SIRP-α V2 D1 domain-6His (human); assay: as above
T5 construct: also called Analyte B
Description: as §1, §2, §3

[6] = target: T1, Cyno SIRP-α V4 D1 domain-6His-Avi; assay: SPR (Biacore 8K), conjugate captured on Protein A chip, His-tagged SIRP-α as analyte, single cycle kinetics; pH 6.0, 37 C
Description: as §1, §2, §3

[7] = target: T2, Mouse SIRP-α normal D1 domain-6His; assay: as above
Description: as §1, §2, §3

[8] = target: T3, Rat SIRP-α K32-N373-ECD-6His; assay: as above
Description: as §1, §2, §3

[9] = target: T4, human SIRP-α V1 D1 domain-6His; assay: as above
Description: as §1, §2, §3

[10] = target: T5, human SIRP-α V2 D1 domain-6His; assay: as above
Description: as §1, §2, §3

[11] = target: T1, Cyno SIRP-α V4 D1 domain-6His-Avi; assay: SPR (Biacore 8K), conjugate captured on Protein A chip, His-tagged SIRP-α as analyte, single cycle kinetics; pH 6.0, 25 C
Description: as §1, §2, §3

[12] = target: T2, Mouse SIRP-α normal D1 domain-6His; assay: as above
Description: as §1, §2, §3

[13] = target: T3, Rat SIRP-α K32-N373-ECD-6His; assay: as above
Description: as §1, §2, §3

[14] = target: T4, human SIRP-α V1 D1 domain-6His; assay: as above
Description: as §1, §2, §3

[15] = target: T5, human SIRP-α V2 D1 domain-6His; assay: as above
Description: as §1, §2, §3

[16] = target: T1, Cyno SIRP-α V4 D1 domain-6His-Avi; assay: SPR (Biacore 8K), conjugate captured on Protein A chip, His-tagged SIRP-α as analyte, single cycle kinetics; pH 7.4, 25 C
Description: as §1, §2, §3

[17] = target: T2, Mouse SIRP-α normal D1 domain-6His; assay: as above
Description: as §1, §2, §3

[18] = target: T3, Rat SIRP-α K32-N373-ECD-6His; assay: as above
Description: as §1, §2, §3

[19] = target: T4, human SIRP-α V1 D1 domain-6His; assay: as above
Description: as §1, §2, §3

[20] = target: T5, human SIRP-α V2 D1 domain-6His; assay: as above
Description: as §1, §2, §3

T4 sequence (P78324 other isoform, or with tags, fused parts or gaps limits assumed): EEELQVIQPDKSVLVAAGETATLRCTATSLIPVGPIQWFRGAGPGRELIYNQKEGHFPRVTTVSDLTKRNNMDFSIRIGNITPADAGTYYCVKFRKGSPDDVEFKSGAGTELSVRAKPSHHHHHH
T5 sequence (chain, as listed by the source limits assumed): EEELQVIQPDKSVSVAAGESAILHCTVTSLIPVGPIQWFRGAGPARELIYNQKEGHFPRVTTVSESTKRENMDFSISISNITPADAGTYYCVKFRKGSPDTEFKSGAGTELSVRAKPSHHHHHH

B1: anti-SIRP-α antibody-CpG oligonucleotide conjugate (human IgG4 heavy chain SEQ ID NO:66, light chain SEQ ID NO:73, conjugated to CpG oligo 7-7, SEQ ID NO:35) (antibody, V domains shown)
VH: EVQLVESGGGVVQPGGSLRLSCAASGFTFSSNAMSWVRQAPGKGLEWVAGISAGGSDTYYPASVKGRFTISRDNSKNTLYLQMNSLRAEDTAVYYCARETWNHLFDYWGQGTLVTVSS
VL: SYELTQPPSVSVSPGQTARITCSGGSYSSYYYAWYQQKPGQAPVTLIYSDDKRPSNIPERFSGSSSGTTVTLTISGVQAEDEADYYCGGYDQSSYTNPFGGGTKLTVLG
modifications: CpG oligo 7-7 (SEQ ID NO:35) with PEG linker attached by an amide bond to the glutamine of the C-terminal Q-tag RPQGFGPP; the general method pools DAR1 fractions (one CpG per antibody)
notes: The oligonucleotide payload is not a protein; also called anti-SIRP-α antibody conjugate; anti-hIgG4 SIRP-α conjugate
- Kd [1]: 0.71 nM
- Kd [2]: 1.63 nM
- Kd [3]: 175 nM
- Kd [4]: 0.28 nM
- Kd [5]: 0.51 nM
- Kd [6]: 0.1 nM
- Kd [7]: 0.07 nM
- Kd [8]: 8.5 nM
- Kd [9]: < 0.001 nM
- Kd [10]: 0.01 nM
- Kd [11]: 0.05 nM
- Kd [12]: < 0.001 nM
- Kd [13]: 3.8 nM
- Kd [14]: < 0.001 nM
- Kd [15]: < 0.001 nM
- Kd [16]: 0.45 nM
- Kd [17]: 0.69 nM
- Kd [18]: 61.4 nM
- Kd [19]: 0.1 nM
- Kd [20]: 0.23 nM
